Patent US10294303B2, “Method of treating or ameliorating metabolic disorders using binding proteins for gastric inhibitory peptide receptor (GIPR) in combination with GLP-1 agonists” (AMGEN INC., priority 2015, dated 2019)

Legend:
C57BL/6 DIO mice [1] = assay: Chronic treatment of DIO mice with anti-GIPR 2.63.1 in combination with Liraglutide, Dulaglutide or Exendin IV; format: in vivo, mouse; conditions: 2.63.1 25 mg/kg once a week, Dulaglutide 1 mg/kg twice a week, Liraglutide 0.3 mg/kg once a day, Exendin IV 0.01 mg/kg once a day, i.p.
Procedure: Male C57BL/6 DIO mice were purchased from Jackson laboratory. Mice were singly housed and continued on high fat diet (60 kcal % fat, Research diet) after arrival. […] All treatments were administrated intraperitoneally. Blood samples were collected from tail vein or cardiac puncture at termination. Serum insulin levels were determined by using mouse high range insulin ELISA (ALPCO Diagnostics). The triglyceride levels were measured using an infinity triglyceride assay kit (Thermo Scientific). Total cholesterol was measured using an infinity total cholesterol kit (Thermo Scientific). Body composition was determined using the minispec whole body composition analyzer (Bruker). For oral glucose tolerance test, mice were fasted for 4 h. Glucose levels were measured and blood samples were taken from the tail vein before the OGTT was initiated. A bolus of glucose (2 g/kg) was given orally by a gavage needle. Glucose levels were measured at 15, 30 and 60 min after glucose administration using a glucose meter (Abbott).

[2] = rapid degradation by the DPP-IV enzyme; cited from earlier work
[3] = system: high fat diet (HFD)-induced obese C57BL/6 mice; assay: Mouse pharmacodynamic assay (IPGTT following exogenous [D-Ala2]-GIP) to test anti-murine GIPR antibody 2.63.1; format: in vivo; conditions: antibody i.p. the day before IPGTT, [D-Ala2]-GIP 50 nmol/kg i.p.
Procedure: FIG. 1 provides an overview of the pharmacodynamics assay to test anti-murine GIPR antibodies. Seven week old male high fat diet (HFD)-induced obese C57BL/6 mice were purchased from Jackson Labs. After arrival, mice were continued on high fat diet with Research Diets D12492 (60 kcal % fat) (Research diet) for one to two weeks. Mice were randomized by body weight and were administrated intraperitoneally with testing GIPR antibody or vehicle (10 mM acetate, 150 mM NaCl, pH 5.0) the day before intraperitoneal glucose tolerance test (IPGTT). Mice were fasted for 7 hours and IPGTT was performed immediately following exogenous GIP [D-Ala2]-GIP (50 nmol/kg, Phoenix Pharmaceuticals) given intraperitoneally. Blood samples were taken from tail nick at the times indicated. Glucose was measured using AlphaTrak blood glucose meter (Abbott). Blood insulin level was determined by using Insulin (mouse) ultra-sensitive EIA kit (ALPCO Diagnostics). […] 2.63.1 comprises a light chain with the following sequence: […]

C57BL/6 DIO mice [4] = assay: Chronic treatment of diet induced obese mice with GIPR antibody 2.63.1; format: in vivo, mouse; conditions: twice a week i.p. for 6 weeks
Procedure: FIG. 3 provides an overview of the study used to determine the effects of chronic treatment of diet induced obese (DIO) mice with the 2.63.1 antibody. 18 week old male C57BL/6 DIO mice fed Research Diets D12492 (60 kcal % fat) were randomized into groups. Treatments were given twice a week intraperitoneally for 6 weeks. Blood glucose levels were measured from tail nick using a glucose meter (Abbott) after mice were fasted for 4 hours. Insulin levels were determined using mouse high range insulin ELISA (ALPCO Diagnostics). Triglyceride levels were measured using an Infinity triglyceride assay kit (Thermo Scientific). Total cholesterol was measured using an Infinity total cholesterol kit (Thermo Scientific). Body composition was determined using the minispec whole body composition analyzer (Bruker).
For intraperitoneal glucose tolerance test (IPGTT), mice were fasted for 4 hours. Glucose levels were measured and blood samples were taken from the tail vein before IPGTT was initiated. IPGTT was performed by intraperitoneal injection of glucose (1 g/kg body weight). Glucose levels were measured at 20, 40 and 60 minutes after glucose administration by using a glucose meter (Abbott). FIG. 4.
At termination, liver and epididymal fat was isolated and weighed using a balance. One piece of each tissue was fixed in 10% buffered formalin for 24 hours.

C57BL/6 DIO mice [5] = assay: Chronic treatment of DIO mice with anti-GIPR 2.63.1 in combination with Liraglutide; format: in vivo, mouse; conditions: 2.63.1 30 mg/kg twice a week, Liraglutide 0.3 mg/kg once a day, i.p.
Procedure: FIG. 24 provides an overview of the study used to determine the effects of chronic treatment of diet induced obese (DIO) mice with the mouse anti-mouse GIPR Ab (2.63.1) in combination with the GLP-1R agonist Liraglutide. Male C57BL/6 DIO mice were purchased from Jackson laboratory. Mice were single housed and continued on high fat diet (60 kcal % fat, Research Diets). Mice at 35 weeks old were randomized into groups and received one of the following treatments: A: vehicle (10 mM acetate, 9% sucrose, pH 5.2, and saline); B: 2.63.1 (30 mg/kg, twice a week); C: Liraglutide (0.3 mg/kg, once a day) and D: 2.63.1 (30 mg/kg, twice a week) and Liraglutide (0.3 mg/kg, once a day). All treatments were administrated intraperitoneally.
Blood samples were collected from tail vein or cardiac puncture at termination. Serum insulin levels were determined by using mouse high range insulin ELISA (ALPCO Diagnostics). Serum leptin levels were measured using mouse and rat leptin ELISA kit from BioVendor. The triglyceride levels were measured using an infinity triglyceride assay kit (Thermo Scientific). Total cholesterol was measured using an infinity total cholesterol kit (Thermo Scientific). At termination, liver, epididymal fat and inguinal fat were isolated and weighed using a balance.
Body composition was determined using the minispec whole body composition analyzer (Bruker).
For the oral glucose tolerance test (OGTT), mice were fasted for 4 hours. Glucose levels were measured and blood samples were taken from the tail vein before the OGTT was initiated. A bolus of glucose (2 g/kg) was given orally by a gavage needle. Glucose levels were measured at 15, 30 and 60 min after glucose administration using a glucose meter (Abbott).

C57BL/6 DIO male mice = assay: Anti-GIPR 2.63.1 treatment in DIO mice pre-treated with Liraglutide (two-phase study); format: in vivo, mouse; conditions: Liraglutide 0.05 or 0.3 mg/kg daily for 2 weeks, then 2.63.1 25 mg/kg weekly added
Source text: FIG. 41 provides an overview of the study used to determine the effects of chronic treatment of diet induced obese (DIO) mice pre-treated with Liragutide with the mouse anti-mouse GIPR Ab (2.63.1). C57BL/6 DIO male mice (17 week old) fed Research Diets D12492 (60% kcal fat) for 13 weeks were randomized into groups. During phase 1 (pre-treatment phase), animals were intraperitoneally dosed daily for 2 weeks with either 1) saline (0.9% sodium chloride), 2) Liraglutide (BAChem #H-6724-0005) at 0.05 mg/kg, 3) Liraglutide at 0.3 mg/kg, or 4) Liraglutide 0.3 mg/kg in combination with a weekly dose of mouse anti-mouse GIPR Ab (2.63.1) in vehicle (10 mM acetate, 9% sucrose, pH 5.2) at 25 mg/kg;ll other groups (1-3) received a weekly dose of vehicle. During phase 2 (experimental stage) mouse anti-mouse GIPR Ab (2.63.1) treatment was initiated in the animals pre-treated with Liraglutide. Blood glucose levels were measured from retro orbital sinus using a glucose meter (Abbott) after mice were fasted for 4 hours before phase 1, end of phase 1, and at the end of the experiment. Insulin levels were determined using mouse high range insulin ELISA (ALPCO Diagnostics). […] Plasma was analyzed on the Olympus chemistry analyzer for liver enzymes, cholesterol, triglycerides, and NEFA. Plasma was analyzed in mouse metabolism multiplex assay (MMHMAG-44K—EMD Millipore) for mouse hormones.

Dulaglutide: GLP1R agonist; also known LY2189265, Eli Lilly and Company [reference compound]
effect on fat mass loss of the combination GIPR Ab 2.63.1 with GLP-1R agonist (Liraglutide, Dulaglutide or Exendin IV) (C57BL/6 DIO mice [1]): synergistic effect
effect on weight loss of the combination GIPR Ab 2.63.1 with GLP-1R agonist (Liraglutide, Dulaglutide or Exendin IV) (C57BL/6 DIO mice [1]): synergistic effect

GLP-1: 31-amino acid peptide derived from the proglucagon gene
half-life [2]: approximately 2 minutes

B1: 2.63.1: anti-murine GIPR antibody; light chain SEQ ID NO: 3161, heavy chain SEQ ID NO: 3162 (antibody)
heavy: MGWSYIILFLVATATDVHSQVQLQQPGAELVKPGASVKLSCRASGYTFTSNWMHWVKQRPRQGLEWIGEINPSNGRSNYNEKFKTKATLTVDKSSSTAYMQLSSLTSEDSAVYYCARFYYGTSWFAYWGQGTLVAVSAAKTTPPSVYPLAPGSAAQTNSMVTLGCLVKGYFPEPVTVTWNSGSLSSGVHTFPAVLQSDLYTLSSSVTVPSSTWPSETVTCNVAHPASSTKVDKKIVPRDCGCKPCICTVPEVSSVFIFPPKPKDVLTITLTPKVTCVVVDISKDDPEVQFSWFVDDVEVHTAQTQPREEQFASTFRSVSELPIMHQDWLNGKEFKCRVNSAAFPAPIEKTISKTKGRPKAPQVYTIPPPKEQMAKDKVSLTCMITDFFPEDITVEWQWNGQPAENYKNTQPIMDTDGSYFVYSKLNVQKSNWEAGNTFTCSVLHEGLHNHHTEKSLSHSPGK
light: MKLPVRLLVLMFWIPASSSDVVMTQTPLSLPVSLGDQASISCRSSQSLVHSNGDTYLHWYLQKPGQSPKLLIYKVSNRFSGVPDRFSGSGSGTDFTLKISRVEAADLGVYFCSQSTHVPPFTFGGGTKLEIKRADAAPTVSIFPPSSEQLTSGGASVVCFLNNFYPKDINVKWKIDGSERQNGVLNSWTDQDSKDSTYSMSSTLTLTKDEYERHNSYTCEATHKTSTSPIVKSFNRNEC
GIP induced glucose levels ([3]; FIG. 2A): Antagonized
GIP induced insulin secretion ([3]; FIG. 2B): antagonizes GIP induced insulin secretion
fasting glucose levels (C57BL/6 DIO mice [4]; 4 hours fast, FIG. 7): lower fasting glucose levels
body weight gain (C57BL/6 DIO mice [4]; FIG. 4): Reduced Body Weight Gain
fat mass (C57BL/6 DIO mice [4]; FIG. 5): lower fat mass
epididymal white adipose tissue weights (C57BL/6 DIO mice [4]; FIG. 6): lower epididymal white adipose tissue weights
insulin levels (C57BL/6 DIO mice [4]; FIG. 8): lower insulin levels
serum total cholesterol (C57BL/6 DIO mice [4]; FIG. 10A): lower serum total cholesterol
serum triglycerides (C57BL/6 DIO mice [4]; FIG. 10B): Lower
hepatocyte microvesicular change and corresponding lipid accumulation (C57BL/6 DIO mice [4]; FIG. 11): reduction in hepatocyte microvesicular change and corresponding lipid accumulation
liver weight (C57BL/6 DIO mice [4]; FIG. 12A): reduced liver weight
liver triglyceride content (C57BL/6 DIO mice [4]; FIG. 12B): reduced
inflammation and infiltrating macrophages surrounding adipocytes in epididymal white adipose tissue (C57BL/6 DIO mice [4]; FIG. 13): reduced inflammation and reduced infiltrating macrophages cells surrounding adipocytes
glucose tolerance (IPGTT) (C57BL/6 DIO mice [4]; glucose 1 g/kg i.p., FIG. 9): improved glucose tolerance
body weight (C57BL/6 DIO mice [5]): prevented weight gain
glucose levels (C57BL/6 DIO mice [5]): lowered glucose
insulin levels (C57BL/6 DIO mice [5]): lowered
effect on fat mass loss of the combination GIPR Ab 2.63.1 with GLP-1R agonist (Liraglutide, Dulaglutide or Exendin IV) (C57BL/6 DIO mice [1]): synergistic effect
effect on weight loss of the combination GIPR Ab 2.63.1 with GLP-1R agonist (Liraglutide, Dulaglutide or Exendin IV) (C57BL/6 DIO mice [1]): synergistic effect
weight loss in animals pre-treated with Liraglutide (C57BL/6 DIO male mice): weight loss effect of anti-GIPR can be observed in animals already receiving GLP-1R agonist therapy
